Residue numbers refer to the chain shown, from its start. Names and notes keep the numbering of the source. Each block holds one binder with its values, some of them ahead of it.
Columns and labels:
TGFβ1 (R&D Systems) [1] = test: cell-based or functional assay
TGFβ1 (R&D Systems) [2] = biological target: T1, TGFβ1 (R&D Systems); test: SPR full titration
T1 construct: also called TGFB1

TGFβ1 (R&D Systems) [3] = biological target: T1, TGFβ1 (R&D Systems); test: single point SPR

T1 sequence (P01137 279-390): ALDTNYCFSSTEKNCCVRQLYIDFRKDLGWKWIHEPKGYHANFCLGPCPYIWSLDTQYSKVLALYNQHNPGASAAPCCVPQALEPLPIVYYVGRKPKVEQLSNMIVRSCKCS

- CMVIC pSmad-3, IC50 (TGFβ1 (R&D Systems) [1]): 10.9 nM
- Kd (TGFβ1 (R&D Systems) [2]): 0.0346 nM
- Kd (TGFβ1 (R&D Systems) [3]): 0.283 nM
B1: Can-SL501-VH3 D108K / Can-SL501-VL2 (antibody, V domains shown)
VH: EVQLVESGGDLVKPGGSLRLSCVASGFTFSSYGMHWVRQAPGKELEWVAVISYDGSIKYYADAVKGRFTISRDNAKNTLYLQMNSLRAEDTAVYYCARTGEYSGYDTKPQYSWGQGTTVTVSS
VL: EIVMTQSPGSLAGSAGESVSINCRASQGIGDDLGWYQQKPGERPKLLIYGTSTLQSGVPARFSSSGSGTDFTLTINNLQAEDVGDYYCLQDSNYPLTFGAGTK

- CMVIC pSmad-3, IC50 (TGFβ1 (R&D Systems) [1]): 32.6 nM
- Kd (TGFβ1 (R&D Systems) [3]): 1.11 nM
B2: Can-SL501-VH3 Y111L / Can-SL501-VL2 (antibody, V domains shown)
VH: B1 VH with K108D, Y111L
VL: B1 VL

- CMVIC pSmad-3, IC50 (TGFβ1 (R&D Systems) [1]): 20.8 nM
- Kd (TGFβ1 (R&D Systems) [2]): 0.135 nM
- Kd (TGFβ1 (R&D Systems) [3]): 1.1 nM
B3: Can-SL501-VH3 P109A / Can-SL501-VL2 (antibody, V domains shown)
VH: B1 VH with K108D, P109A
VL: B1 VL

- CMVIC pSmad-3, IC50 (TGFβ1 (R&D Systems) [1]): 5.02 nM
- Kd (TGFβ1 (R&D Systems) [2]): 0.00909 nM
- Kd (TGFβ1 (R&D Systems) [3]): 4.8 nM
B4: Can-SL501-VH3 S112Q / Can-SL501-VL2 (antibody, V domains shown)
VH: B1 VH with K108D, S112Q
VL: B1 VL

- CMVIC pSmad-3, IC50 (TGFβ1 (R&D Systems) [1]): 50.2 nM
- Kd (TGFβ1 (R&D Systems) [2]): 0.0308 nM
- Kd (TGFβ1 (R&D Systems) [3]): 0.562 nM
B5: Can-SL501-VH3 Y111I / Can-SL501-VL2 (antibody, V domains shown)
VH: B1 VH with K108D, Y111I
VL: B1 VL

- CMVIC pSmad-3, IC50 (TGFβ1 (R&D Systems) [1]): 4.83 nM
- Kd (TGFβ1 (R&D Systems) [2]): 0.0503 nM
- Kd (TGFβ1 (R&D Systems) [3]): 8.01 nM
B6: Can-SL501-VH3 Q110D / Can-SL501-VL2 (antibody, V domains shown)
VH: B1 VH with K108D, Q110D
VL: B1 VL

- CMVIC pSmad-3, IC50 (TGFβ1 (R&D Systems) [1]): 30.5 nM
- Kd (TGFβ1 (R&D Systems) [2]): 0.111 nM
- Kd (TGFβ1 (R&D Systems) [3]): 5.11 nM
B7: Can-SL501-VH3 Q110K / Can-SL501-VL2 (antibody, V domains shown)
VH: B1 VH with K108D, Q110K
VL: B1 VL

- CMVIC pSmad-3, IC50 (TGFβ1 (R&D Systems) [1]): 5.03 nM
- Kd (TGFβ1 (R&D Systems) [2]): 0.0153 nM
- Kd (TGFβ1 (R&D Systems) [3]): 0.487 nM
B8: Can-SL501-VH3 S112E / Can-SL501-VL2 (antibody, V domains shown)
VH: B1 VH with K108D, S112E
VL: B1 VL

- CMVIC pSmad-3, IC50 (TGFβ1 (R&D Systems) [1]): 46.9 nM
- Kd (TGFβ1 (R&D Systems) [2]): 0.0238 nM
- Kd (TGFβ1 (R&D Systems) [3]): 4.98 nM
B9: Can-SL501-VH3 Y111E / Can-SL501-VL2 (antibody, V domains shown)
VH: B1 VH with K108D, Y111E
VL: B1 VL

- CMVIC pSmad-3, IC50 (TGFβ1 (R&D Systems) [1]): 8.95 nM
- Kd (TGFβ1 (R&D Systems) [2]): 0.0809 nM
- Kd (TGFβ1 (R&D Systems) [3]): 5.64 nM
B10: Can-SL501-VH3 Q110N / Can-SL501-VL2 (antibody, V domains shown)
VH: B1 VH with K108D, Q110N
VL: B1 VL

- CMVIC pSmad-3, IC50 (TGFβ1 (R&D Systems) [1]): 25.2 nM
- Kd (TGFβ1 (R&D Systems) [2]): 0.0651 nM
- Kd (TGFβ1 (R&D Systems) [3]): 0.759 nM
B11: Can-SL501-VH3 D108R / Can-SL501-VL2 (antibody, V domains shown)
VH: B1 VH with K108R
VL: B1 VL

- CMVIC pSmad-3, IC50 (TGFβ1 (R&D Systems) [1]): 30 nM
- Kd (TGFβ1 (R&D Systems) [2]): 0.0836 nM
- Kd (TGFβ1 (R&D Systems) [3]): 0.752 nM
B12: Can-SL501-VH3 P109T / Can-SL501-VL2 (antibody, V domains shown)
VH: B1 VH with K108D, P109T
VL: B1 VL

- CMVIC pSmad-3, IC50 (TGFβ1 (R&D Systems) [1]): 8.78 nM
- Kd (TGFβ1 (R&D Systems) [2]): 0.0196 nM
- Kd (TGFβ1 (R&D Systems) [3]): 7 nM
B13: Can-SL501-VH3 S112D / Can-SL501-VL2 (antibody, V domains shown)
VH: B1 VH with K108D, S112D
VL: B1 VL

- CMVIC pSmad-3, IC50 (TGFβ1 (R&D Systems) [1]): 6.65 nM
- Kd (TGFβ1 (R&D Systems) [2]): 0.0657 nM
- Kd (TGFβ1 (R&D Systems) [3]): 13.5 nM
B14: Can-SL501-VH3 Q110E / Can-SL501-VL2 (antibody, V domains shown)
VH: B1 VH with K108D, Q110E
VL: B1 VL

- CMVIC pSmad-3, IC50 (TGFβ1 (R&D Systems) [1]): 19.6 nM
- Kd (TGFβ1 (R&D Systems) [2]): 0.0235 nM
- Kd (TGFβ1 (R&D Systems) [3]): 0.457 nM
B15: Can-SL501-VH3 Y111T / Can-SL501-VL2 (antibody, V domains shown)
VH: B1 VH with K108D, Y111T
VL: B1 VL
